Test results published in patent US10233255B2, “Antibody therapeutics that bind STAT3” (Sorrento Therapeutics, Inc., priority 2016, dated 2019).
“Also recorded” adds a separate entry of the source.

Assays:
[1] = tested on: MCF-10A cells; assay: Accumulation / internalization of antibody conjugate in MCF-10A cells (fluorescence imaging); format: cell-based, human; settings: 30 minutes pretreatment, FIG. 14
[2] = molecular target: T1, STAT3 (Homo sapiens, UniProt P40763); assay: Biacore T200 affinity measurement, captured antibody vs recombinant human STAT3-GST; format: binding
Method: Biacore T200 was used to measure the affinity of anti-STAT and anti-STAT-phosphorothioate (PS) antibody (compound 901) to human STAT3. Anti-human Fc antibody (GE, BR-1008-39) was immobilized on a CM5 sensor chip to approximately 1000 RU using standard NHS/EDC coupling methodology. Antibodies (approximately 10 ug/ml) were captured for 60 seconds at a flow rate of 10 ul/min Recombinant human STAT3-GST was serially diluted 2-fold into running buffer (HBS-EP+, starting from […]). All measurements were conducted at a flow rate of 30 ul/min Surfaces were regenerated with 3M MgCl2 (from human antibody kit) for 60 seconds. A 1:1 (Langmuir) binding model was used to fit the data. The results are shown in Table 2, below for anti-STAT3 antibody, ST3G12, and the conjugated anti-STAT3 antibody, ST3G12-PS (compound 901).

[3] = tested on: Human colon cancer HCT116 cells; assay: Penetration of 3D tumor spheroids, HCT116 cells; format: cell-based; settings: alexa fluor 488 labeled, FIG. 18C
Method: Next, experiments were carried out to determine the effect of the STAT3 antibody conjugate on penetration of tumor cells and on tumor cell growth in a three-dimensional (3D) model. 3D in vitro models, such as a tumor spheroid model, have been used in cancer research as an intermediate model between in vitro cancer cell line cultures and in vivo tumor. Human colon cancer HCT116 cells were grown in a 3D tumor spheroid model in a ULA (ultra low attachment) plate, and treated with alexa fluor 488 dye labeled anti-STAT3 monoclonal antibody or alexa fluor labeled anti-STAT3 antibody conjugate (compound 901) for one hour to initiate the uptake. Thereafter, spheres were imaged every 10 min for the next 80 hours with ImageExpress. FIG. 18C are images that show detection of the alexa fluor. […] Next, the effect of the anti-STAT3 antibody conjugate (compound 901) on the growth of 3D tumor spheroids was examined DU145 human prostate cancer cells were seeded in ULA plate. Spheres were allowed to form for 72 hours then treated with the indicated antibodies for additional 5 days. Growth was monitored by ImageXpress HCS confocal microscopy (FIG. 19A). CTG assay was used to determine percent viability in FIG. 19B and percent killing in FIG. 19C. Experiments were done in triplicate wells. Error bars represent one standard deviation.

[4] = mouse, in vivo, iv
From the text: (§3) The pharmacokinetic properties of the anti-STAT3 antibody conjugates were examined in athymic nude mice.

[5] = Pharmacokinetics in athymic nude mice; settings: administered intravenously
From the text: as §3

[6] = tested on: U251 cells; assay: Accumulation / internalization of antibody conjugate in U251 cells (fluorescence imaging); format: cell-based, human; settings: 20 ug/mL, 2 hours at 37° C.
Method: The same experiments were repeated in the U251 glioblastoma cell line, which also has high levels of STAT3 activity, as described in FIG. 7A. U251 cells were treated with 10 ug/ml of ST3G12-PS antibody conjugate compound 901 in increasing proportions of human serum (1%, 5%, 10% and 20%), for 90 minutes at 37° C. Cells were then fixed, permeabilized and stained with anti-human IgG Alexa546. […] MCF-10A, a normal human mammary epithelial cell line with low levels of STAT3 activity (STAT3 low), was described in FIGS. 7A and 7B. This cell line was also tested according to the above protocol. […] The results of another experiment that was performed to determine accumulation of anti-STAT3 antibody conjugate (e.g. compound 901) are shown in FIG. 7C.
Experiments were carried out to confirm that the ST3G12-PS antibody conjugate (compound 901) was penetrating the cells. Briefly, previously cleaned glass coverslips were coated with collagen for 2 hours at 37° C. 100,000 U251 cells were seeded on the coverslips. Media was removed, and cells were rinsed once with fluorobrite. Next, 20 ug/mL of the specified antibody was added for 2 hours at 37° C. […] In FIG. 10E, red fluorescence indicates the plasma membrane, blue fluorescence indicates the nuclei and green florescence represents the intracellular accumulated ST3G12-PS antibody conjugate compound 901a. […]

[7] = molecular target: T1, STAT3; assay: Cell binding assay on fixed, permeabilized human cells (PE anti-human IgG, flow cytometry); parameters: endogenous in cells; host or cells: MDA-MB-468 (also given as MDA-MB-435), U251, HeLa
Method: (§1) Next, the binding of the candidate anti-STAT3 antibodies to cellular targets was tested in cell binding assays using MDA-MB-435 breast cancer cells and U251 cells. The cells were seeded overnight in a 96 well plate, then fixed with PFA and permeabilized with methanol. Cells were incubated with serial dilutions of the anti-STAT3 antibody candidates ST1A5, ST3G12 and ST5G12 for one hour and 30 minutes. Following incubation, the cells were washed and incubated for 30 minutes with phycoerythrin (PE) conjugated anti-human IgG. Fluorescence was measured on an Intellicyte high-throughput flow cytometry analyzer. […] Bevacizumab (Avastin), a monoclonal antibody that inhibits vascular endothelial growth factor A (VEGF-A) was used as a negative control.
(§2) An isotype control was used as a negative control. The experimental procedure was the same as described above for FIGS. 3A and 3B.

[8] = molecular target: T2, mouse STAT3 (Mus musculus, UniProt P42227); assay: Cell binding assay on fixed, permeabilized mouse cell lines (flow cytometry); settings: FIG. 3C
T2 construct: endogenous in cells; host or cells: CT-26, MC-38
Method: as §1, §2

[9] = molecular target: GST protein (Schistosoma japonicum, UniProt P08515); assay: Biacore binding to GST protein (specificity control)
[10] = tested on: STAT3 phosphorylation; assay: IL-6 stimulated STAT3 phosphorylation ELISA on cell lysates; format: cell-based, human; settings: overnight antibody, IL-6 10 or 40 ng/ml for 20 minutes
Method: Normal breast epithelial cells (MCF-10A) and ER+ breast cancer cells (MCF-7) were treated with naked ST3G12 antibody and conjugated ST3G12-PS antibody (compound 901) (shown as “OS-STAT3” in FIGS. 8A and 8B) to determine the effect on STAT3 phosphorylation. Cells were pre-treated overnight with antibody, and then stimulated with various concentrations of IL-6 for 20 minutes (10 ng/ml or 40 ng/ml). IL-6 is a STAT3 activator. Cells were then lysed and the protein lysates were subjected to ELISA to determine the phosphorylation status. […] “OS-AIP” refers to an oligosaccharide conjugated bacterial AIP protein, used as a control.

[11] = tested on: cellular antigens in U251 cells; assay: Cell binding of naked versus PS-conjugated antibody in U251 cells (HTFC); parameters: species or system human; settings: permeabilized U251 cells, FIG. 4
Method: Cell binding of naked anti-STAT3 ST3G12 antibodies (ST3G12) versus compound 901 (ST3G12-PS) was assessed in U251 cells. Cells were lifted, permeabilized and incubated with increasing amounts of naked anti-STAT antibodies and PS anti-STAT antibody (compound 901) in PBS+/−2% fetal bovine serum (FBS). After 45 minutes at room temperature, cells were washed twice and incubated with phycoerythrin (PE) conjugated-anti-human IgG for 20 minutes at room temperature in the dark. Cells were then washed and analyzed by high throughput flow cytometry (HTFC). The results are shown in FIG. 4 for assessment of antibody binding to U251 cells.

T1 sequence (P40763 whole entry): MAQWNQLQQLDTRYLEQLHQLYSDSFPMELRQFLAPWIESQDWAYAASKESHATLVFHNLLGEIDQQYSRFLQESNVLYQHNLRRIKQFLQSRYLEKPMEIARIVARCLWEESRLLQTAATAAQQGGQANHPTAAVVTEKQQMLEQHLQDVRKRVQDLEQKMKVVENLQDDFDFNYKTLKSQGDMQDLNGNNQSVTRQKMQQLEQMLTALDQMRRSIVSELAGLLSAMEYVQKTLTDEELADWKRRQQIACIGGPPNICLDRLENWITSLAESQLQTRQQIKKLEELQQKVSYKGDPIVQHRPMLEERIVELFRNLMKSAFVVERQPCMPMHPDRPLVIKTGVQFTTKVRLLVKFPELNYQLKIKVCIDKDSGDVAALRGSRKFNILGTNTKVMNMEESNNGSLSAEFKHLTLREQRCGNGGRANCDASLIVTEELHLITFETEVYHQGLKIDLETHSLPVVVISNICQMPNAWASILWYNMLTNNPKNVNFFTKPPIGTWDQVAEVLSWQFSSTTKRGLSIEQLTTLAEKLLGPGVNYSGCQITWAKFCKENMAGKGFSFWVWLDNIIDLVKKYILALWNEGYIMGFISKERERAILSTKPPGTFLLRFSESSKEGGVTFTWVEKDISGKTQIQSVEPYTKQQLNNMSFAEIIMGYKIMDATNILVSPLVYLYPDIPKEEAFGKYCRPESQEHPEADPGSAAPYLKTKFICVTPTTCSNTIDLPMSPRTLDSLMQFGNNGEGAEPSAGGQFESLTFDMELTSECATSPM
T2 sequence (P42227 whole entry): as the sequence (P40763 whole entry) above, with E760D counted along it
Sequence of GST protein (P08515 whole entry): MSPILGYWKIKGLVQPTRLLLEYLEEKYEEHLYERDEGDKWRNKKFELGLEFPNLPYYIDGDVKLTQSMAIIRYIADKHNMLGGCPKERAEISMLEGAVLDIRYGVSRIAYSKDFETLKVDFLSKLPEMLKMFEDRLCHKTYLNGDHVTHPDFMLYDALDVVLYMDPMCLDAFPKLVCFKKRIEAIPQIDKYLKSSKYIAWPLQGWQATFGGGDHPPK

Molecule: O=C1NC(=NS(=O)(=O)c2cccc3ccccc23)S/C1=C\c1ccc(Br)cc1 [PS2, Pitstop2]
- effect of clathrin inhibitor on ST3G12-PS uptake ([1]; 30 uM and 60 uM): inhibited

Molecule: CCCCC[C@@H](O)[C@H]1C(=O)O[C@H](C)[C@@H](O)/C=C/C=C/C=C/C=C/C=C(\C)[C@@H](O)C[C@H](O)C[C@H](O)C[C@H](O)C[C@H](O)C[C@H](O)C[C@@H]1O [filipin]
- effect of caveolin inhibitor on ST3G12-PS uptake ([1]; 0.5 ug/ml): little effect
- effect of caveolin inhibitor on ST3G12-PS uptake ([1]; 1.0 ug/ml): greater effect

B1: ST3G12: fully human anti-STAT3 antibody, heavy/light chain variable domains SEQ ID NO. 3/SEQ ID NO. 4 (antibody, V domains shown)
VH: QVQLVQSGAEVKKPGASVKVSCKASGYTFTSYYMHWVRQAPGQGLEWMGIINPSGGSTSYAQKFQGRVTMTRDTSTSTVYMELSSLRSEDTAVYYCARSDYVHSFDIWGQGTMVTVSS
VL: QPVLTQPPSASALLGASIKLTCTLSSEHSTYTVEWYQQRPGRSPQYIMNVKSDGSYNKGDGIPDRFMGSSSGADRYLTFSNLQSDDEAEYHCGESHRIDGQVGVVFGGGTKLTVL
- Rmax [2]: 174
- Ka ([2]; 1:1 (Langmuir) binding model): 59700 M⁻¹ s⁻¹
- Kd ([2]; 1:1 (Langmuir) binding model): 0.000322 s⁻¹
- penetration of tumor spheroids [3]: did not
- AUC (0-336 hr) [4]: 254.6 µg·days/mL
- Cmax [4]: 79.7 µg/mL
- Vs s [4]: 0.0833 L/kg
- CI [5]: 18.7 mL/day/kg
- T ½ [5]: 76.5 h
- cell penetration / internalization by microscopy [6]: no internalization
- binding to HeLa cell line ([7]; HeLa cells, FIG. 3C): strong binding
- STAT3 binding in MDA-MB-468 cells ([7]; MDA-MB-468 cells, FIG. 3A): bound STAT3
- STAT3 binding in U251 cells ([7]; U251 cells, FIG. 3B / 3C): bound STAT3; also recorded: strong binding
- binding to CT-26 mouse cell line ([8]; CT-26 cells): able to recognize mouse STAT3
- binding to MC-38 mouse cell line ([8]; MC-38 cells): able to recognize mouse STAT3
- binding to GST protein [9]: No binding
- effect on STAT3 phosphorylation in MCF-10A cells ([10]; FIG. 8A): little to no effect
- effect on STAT3 phosphorylation in MCF-7 cells ([10]; FIG. 8B): little to no effect
- antibody binding to U251 cells, naked versus conjugated [11]: considerably lower
